# Data from PMC2741138 (Journal of molecular biology, 2008).
# Where “and” joins values, the source holds several entries; their conditions need not be identical. Identical values can stand only once.
# B1: ASF(RS12)-His (domain or fragment)
# chain: PRSPSYGRSRSRSRSRSRSRSRSNSRSRSYSPRRSRGSPRYSPRHSRSRSRT
# B2: ASF(ΔRRM1)-His (domain or fragment)
# chain: GGAPRGRYGPPSRRSENRVVVSGLPPSGSWQDLKDHMREAGDVCYADVYRDGTGVVEFVRKEDMTYAVRKLDNTKFRSHEGETAYIRVKVDGPRSPSYGRSRSRSRSRSRSRSRSNSRSRSYSPRRSRGSPRYSPRHSRSRSRT
# B3: ASF(ΔRRM12)-His (domain or fragment)
# chain: GPRSPSYGRSRSRSRSRSRSRSRSNSRSRSYSPRRSRGSPRYSPRHSRSRSRT
# B4: ASF(RRM1) (domain or fragment)
# chain: MSGGGVIRGPAGNNDCRIYVGNLPPDIRTKDIEDVFYKYGAIRDIDLKNRRGGPPFAFVEFEDPRDAEDAVYGRDGYDYDGYRLRVEFPRS
# B5: (RS)16 (peptide)
# chain: RSRSRSRSRSRSRSRSRSRSRSRSRSRSRSRS
# modifications: Expanded from the printed formula (RS)16; any flanking residues or end caps are not stated
# B6: (RS)8 (peptide)
# chain: RSRSRSRSRSRSRSRS
# modifications: Expanded from the printed formula (RS)8; any flanking residues or end caps are not stated
# B7: ASF(RRM2) (domain or fragment)
# chain: NRVVVSGLPPSGSWQDLKDHMREAGDVCYADVYRDGTGVVEFVRKEDMTYAVRKLDNTKFRSHEGETAYIRVKVDGPRSPSYG
# Target: T1, SRPK1 (UniProt Q96SB4 1-655)
# Assay: kinase competition assay
# T1 sequence (Q96SB4 whole entry): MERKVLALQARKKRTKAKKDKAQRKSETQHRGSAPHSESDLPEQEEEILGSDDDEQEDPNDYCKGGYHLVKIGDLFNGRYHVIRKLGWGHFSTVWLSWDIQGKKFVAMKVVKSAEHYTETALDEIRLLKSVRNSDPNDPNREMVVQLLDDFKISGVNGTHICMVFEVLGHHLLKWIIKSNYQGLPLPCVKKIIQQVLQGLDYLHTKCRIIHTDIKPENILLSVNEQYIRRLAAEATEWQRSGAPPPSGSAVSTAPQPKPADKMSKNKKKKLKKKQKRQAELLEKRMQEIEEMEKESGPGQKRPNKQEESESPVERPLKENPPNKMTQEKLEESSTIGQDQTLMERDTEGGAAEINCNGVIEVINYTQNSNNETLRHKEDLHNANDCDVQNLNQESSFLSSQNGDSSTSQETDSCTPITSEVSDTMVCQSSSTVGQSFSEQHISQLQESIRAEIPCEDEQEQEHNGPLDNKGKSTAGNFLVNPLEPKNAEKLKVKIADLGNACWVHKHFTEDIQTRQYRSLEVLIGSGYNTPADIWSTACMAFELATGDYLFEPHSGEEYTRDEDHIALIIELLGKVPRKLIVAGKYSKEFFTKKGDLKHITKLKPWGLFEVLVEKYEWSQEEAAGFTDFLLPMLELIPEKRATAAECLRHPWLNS
row,Ki,Molecule
1,190 ± 13 nM,B1
2,54 ± 5 nM,B2
3,70 ± 15 nM,B3

# Target: T1, SRPK1
# Assay: kinase competition assay
# Remark: another data set of the same source
row,Ki,Molecule
1,1600 ± 400 nM,B4
2,160 ± 41 nM,B5
3,1800 nM and 1600 nM,B6
4,6300 ± 1900 nM,B7

# Target: SRPK1 (UniProt Q96SB4)
# Assay: kinase competition assay
# Sequence of SRPK1 (UniProt Q96SB4) (Q96SB4 whole entry): as above
row,Ki,Molecule
1,120 nM,Block 3/4 (from UniProt Q07955 1-248) (natural protein)
2,180 nM,ASF(ΔRS) (domain or fragment)
3,40 nM,Block 1/2 (from UniProt Q07955 1-248) (natural protein)
4,45 nM,Block 2/3 (from UniProt Q07955 1-248) (natural protein)
5,170 nM,ASF(ΔRS2) (domain or fragment)
